These results are taken from article PMC4007430.

Changes are numbered by the printed parent chain.

Experiment [1] deals with T1, CCL22 labeled with Alexa Fluor 647, O00626.
T1 chain: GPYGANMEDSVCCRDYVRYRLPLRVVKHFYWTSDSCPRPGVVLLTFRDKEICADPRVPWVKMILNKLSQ
Kind of experiment: flow cytometry on cells. Particulars: chain shown with the change;; parent: est. 47; read off a plot.

The target in experiment [2] is CCL2 labeled with Alexa Fluor 647, P13500. The experiment is described as follows: flow cytometry on cells. Particulars: read off a plot. On the technique in general: A flow cytometer gives signals particle by particle.
Chain of CCL2 labeled with Alexa Fluor 647, P13500 (P13500 24-99): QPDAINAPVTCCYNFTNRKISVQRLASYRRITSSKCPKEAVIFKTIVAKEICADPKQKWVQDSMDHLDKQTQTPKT
Setting [3] is: chain shown with the change;, parent: est. 195.

B1: HA-ACKR2 (epitope-tagged human ACKR2, wild type), O00590 YYYDY to FFYDF (first, second and fourth tyrosines of the motif to F) (protein)
chain: MAATASPQPLATEDADSENSSFFFYDFLDEVAFMLCRKDAVVSFGKVFLPVFYSLIFVLGLSGNLLLLMVLLRYVPRRRMVEIYLLNLAISNLLFLVTLPFWGISVAWHWVFGSFLCKMVSTLYTINFYSGIFFISCMSLDKYLEIVHAQPYHRLRTRAKSLLLATIVWAVSLAVSIPDMVFVQTHENPKGVWNCHADFGGHGTIWKLFLRFQQNLLGFLLPLLAMIFFYSRIGCVLVRLRPAGQGRALKIAAALVVAFFVLWFPYNLTLFLHTLLDLQVFGNCEVSQHLDYALQVTESIAFLHCCFSPILYAFSSHRFRQYLKAFLAAVLGWHLAPGTAQASLSSCSESSILTAQEEMTGMNDLGERQSENYPNKEDVGNKSA
Turning to B1, the response in experiment [1] was determined as 18 MFI.

B2: HA-ACKR2 (epitope-tagged human ACKR2, wild type), O00590 YYYDY to YFYDY (second tyrosine of the motif to F) (protein)
chain: B1 chain with F23Y, F27Y
For the molecule B2, the response in experiment [1] came out at 71 MFI.

B3: HA-ACKR2 (epitope-tagged human ACKR2, wild type), O00590 YYYDY to YYFDY (third tyrosine of the motif to F) (protein)
chain: B1 chain with F23Y, F24Y, Y25F, F27Y
Consider B3, for which the response in experiment [2] (setting [3]) is 180 MFI.

B4: HA-ACKR2 (epitope-tagged human ACKR2, wild type), O00590 YYYDY to FYFDF (first, third and fourth tyrosines of the motif to F) (protein)
chain: B1 chain with F24Y, Y25F
For the molecule B4, the response in experiment [1] is 19 MFI.

B5: HA-ACKR2 (epitope-tagged human ACKR2, wild type), O00590 YYYDY to FFFDF (all four tyrosines of the motif to F) (protein)
chain: B1 chain with Y25F
For B5, the response was 3 MFI in experiment [2] (chain shown with the change, 10 µg/ml Alexa-CCL2, parent: est. 28); 3 MFI in experiment [2] (chain shown with the change, 20 µg/ml Alexa-CCL2, parent: est. 37); 6 MFI in experiment [2] (chain shown with the change, 30 µg/ml Alexa-CCL2, parent: est. 54); 26 MFI in experiment [2] (setting [3]); 7.5 MFI in experiment [1].

B6: HA-ACKR2 (epitope-tagged human ACKR2, wild type), O00590 YYYDY to FFFDY (first, second and third tyrosines of the motif to F) (protein)
chain: B1 chain with Y25F, F27Y
B6: the response in experiment [1] was determined as 24 MFI.

B7: HA-ACKR2 (epitope-tagged human ACKR2, wild type), O00590 YYYDY to YFFDF (second, third and fourth tyrosines of the motif to F) (protein)
chain: B1 chain with F23Y, Y25F
In the case of B7, the response in experiment [1] turned out to be 22 MFI.

B8: HA-ACKR2 (epitope-tagged human ACKR2, wild type), O00590 YYYDY to FYYDY (first tyrosine of the motif to F) (protein)
chain: B1 chain with F24Y, F27Y
For B8, the response in experiment [2] (setting [3]) was determined as 180 MFI.

B9: HA-ACKR2 (epitope-tagged human ACKR2, wild type), O00590 YYYDY to YYYDF (fourth tyrosine of the motif to F) (protein)
chain: B1 chain with F23Y, F24Y
As for B9, in experiment [2] (setting [3]), the response was determined as 180 MFI.
